What all share (type): cell-based
For test [1], the system named is side population cells of Huh7 cells. In words: Spheroid formation of Huh7 side population cells under low adherence culture conditions. The conditions noted are these: 5 nM doxorubicin, 9 days; FIG. 9. The procedure:
The dye excluding side population cells of Huh7 cells were isolated as described in Example 8. Side population cells were then seeded into ultra low adherence 96-well plates (200 cells/well) in M11 medium, and grown for 9 days at 37° C. in the presence of control or anti-progastrin polyclonal antibodies (1 μg/ml), 5 nM doxorubicin (a chemotherapeutic agent used in certain liver cancer therapy), or DMSO (vehicle for doxorubicin) (15 wells per condition). The composition of M11 medium was as follows: DMEM/F12-Glutamax (Catalog #31331 Invitrogen); 20 ng/ml EGF (R&D systems); 10 ng/ml FGF (R&D systems); 20 microg/ml Insulin (Sigma); 1/100 dilution of N2 supplement (Catalog #P1510, Gibco); 2 μg/ml ciprofloxacin, 5 μg/ml gentamycin and 3 μg/ml glucose. At the end of the experiment, photomicrographs were taken, and the number of spheres per well counted and the mean and standard deviation calculated.
The dye excluding side population cells of Huh7 cells were isolated as described in Example 8. […] At the end of the experiment, photomicrographs were taken, and the number of spheres per well counted and the mean and standard deviation calculated.

For a further test, the system named is liver cancer cells. In words: Neutralizing activity with liver cancer cells. The conditions noted are these: tests with liver cancer cells. The procedure: A specific test for assessing whether a particular anti-hPG antibody is neutralizing can be performed as follows. Huh7 hepatocellular carcinoma cells are seeded in ultra low-adherence 24-well plates (500 cells/well) in serum-free M11 medium. Cells are grown at 37° C. and treated twice daily for 7 days with the test anti-hPG antibody or a control, non-specific monoclonal antibody, at antibody concentrations of about 5 μg/mL. At the end of the experiment, photomicrographs are taken, and the number of spheres per well is counted and the median and percentile distribution calculated.

For test [2], the system named is PLC/PRL/5 hepatocellular carcinoma cells. As to the kind of experiment: Spheroid formation of PLC/PRL/5 cells under low adherence culture conditions. The conditions noted are these: vs control MAb. The procedure:
PLC/PRL/5 hepatocellular carcinoma cells were seeded in ultra low-adherence 24-well plates (220 cells/well) in serum-free M11 medium (DMEM/F12 with 20 ng/ml EGF, 10 ng/ml FGF, 20 μg/ml insulin, N2 supplement, 2 μg/ml ciprofloxacin, 5 μg/ml gentamycin and 3 μg/ml glucose). Cells were grown for 10 days at 37° C., with the daily addition of control or anti-hPG MAb3 monoclonal antibodies (1 μg/ml). At the end of the experiment, photomicrographs were taken, and the number of spheres per well counted and the mean and standard deviation calculated. In one experiment, PLC/PRL/5 hepatocellular carcinoma cells were seeded in ultra low-adherence 96-well plates (35 cells/well) in serum-free M11 medium (DMEM/F12 with 20 ng/ml EGF, 10 ng/ml FGF, 20 μg/ml insulin, N2 supplement, 2 μg/ml ciprofloxacin, 5 μg/ml gentamycin, and 3 μg/ml glucose). […] At the end of the experiment, photomicrographs were taken, and the number of spheres per well counted and the median and percentile distribution calculated. […] At the end of the experiment, photomicrographs were taken, and the number of spheres per well counted and the median and percentile distribution calculated. […] At the end of the experiment, photomicrographs were taken, and the number of spheres per well counted and the median and percentile distribution calculated.

Test [3] has as its system Huh7 hepatocellular carcinoma cells. As to the kind of experiment: Spheroid formation of Huh7 cells after antibody pre-treatment under regular adherence. The note with it: pre-treatment with 10 μg/mL, then 5 days without treatment, vs control MAb; FIG. 13A-B. Here is the method: In one experiment, 75,000 Huh7 hepatocellular carcinoma cells/well were first seeded into 6-well plates in MEMα with 10% FCS, serum starved overnight and grown for 60 hours in MEMα+0.5% Pannexin H in the presence of 10 μg/mL anti-progastrin monoclonal antibody MAb8 or control monoclonal antibody (P3X63Ag8, ATCC, Ref TIB-9). At the end of treatment, for each treatment group, 500 cells/well were plated into eight wells of ultra low-adherence 24-well plates in 500 μl of serum-free M11 medium containing bFGF and EGF, and grown for a further 5 days without treatment. At the end of this period, photographs were taken, the number of spheres per well was counted, and sphere surface was measured. […] Thereafter, an operator who was blinded to the identity of all wells counted the spheroids.
In a second experiment, 75,000 Huh7 hepatocellular carcinoma cells/well were first seeded into 6-well plates in MEMα with 10% FCS, serum starved overnight and grown for 60 hours in MEMα+0.5% Pannexin H in the presence of 10 μg/mL anti-progastrin monoclonal antibody MAb16 or a control monoclonal antibody (P3X63Ag8, ATCC, Ref TIB-9). […] At the end of this period, photographs were taken, the number of spheres per well was counted, and sphere surface was measured. […] Thereafter, an operator who was blinded to the identity of all wells counted the spheroids.

For `COc1cccc2c1C(=O)c1c(O)c3c(c(O)c1C2=O)C[C@@](O)(C(=O)CO)C[C@@H]3O[C@H]1C[C@H](N)[C@H](O)[C@H](C)O1` [Doxorubicin, doxorubicin], in test [1], the “Number of spheroids formed” value is recorded as “reduce the number of spheroids”.

B1: MAb19: murine N-terminal anti-hPG monoclonal antibody, hybridoma 1B3B4F11, VH SEQ ID NO:62, VL SEQ ID NO:66 (antibody, V domains shown)
VH: DVQLQESGPGLVKPSQSLSLTCTVTGYSITSDYAWNWIRQFPGNKLEWMGYISFSGYTSYNPSLKSRISVTRDTSRNQFFLQLTSVTTEDTATYYCAREVNYGDSYHFDYWGQGTIVTVSS
VL: QLALTQSSSASFSLGASAKLTCTLSSQHRTYTIEWYQQQSLKPPKYVMEVKKDGSHSTGHGIPDRFSGSSSGADRYLSISNIQPEDEAIYICGVGDAIKGQSVFVFGGGTKVTVL
In the case of B1, in the test on liver cancer cells, the Neutralizing activity entry is “exhibited neutralizing activity”. Moreover, in test [2] (3 μg/ml twice daily, 8 days, FIG. 15A), the “Number of spheroids formed” value is reported as “significantly reduced”.

B2: MAb8: murine C-terminal anti-hPG monoclonal antibody, hybridoma 1C10D3B9, VH SEQ ID NO:59, VL SEQ ID NO:63 (antibody, V domains shown)
VH: EVQLVESGGGLVKPGGSLKLSCAASGFTFTTYAMSWVRQTPEKRLEWVATISSGGTYTYYPDSVKGRFTISRDNAKNALYLQMSSLRSEDTAMYYCATQGNYSLDFWGQGTSLTVSS
VL: DIVMTQAASSNPVTLGTSASISCRSSKSLRHTKGITFLYWYLQKPGQSPQLLIYQMSNLASGVPDRFSSSGSGTDFTLRISRVEAEDLGVYYCAQNLELPLTFGAGTKLELK
In the case of B2, in the test on liver cancer cells, the Neutralizing activity result is “exhibited neutralizing activity”. Also, the “Number of spheroids formed” value in test [2] (6 μg/ml twice daily, 7 days, FIG. 15C) is listed as “significantly reduced”. For the same molecule, in test [3], the “Ability to grow as spheroids” value was “significantly reduced”.

B3: MAb3: murine N-terminal anti-hPG monoclonal antibody, hybridoma 6B5B11C10, VH SEQ ID NO:12, VL SEQ ID NO:13 (antibody, V domains shown)
VH: EVQLQQSGTVLARPGASVKMSCKASGYIFTSYWVHWVKQRPGQGLEWIGGFYPGNSDSRYNQKFKGKATLTAVTSASTAYMDLSSLTNEDSAVYFCTRRDSPQYWGQGTTLTVSS
VL: DVLMTQTPLSLPVSLGDQASISCRSSQSIVHSNGNTYLEWYLQKPGQSPKLLIYKVSNRFSGVPDRFSGSGSGTDFTLKISRLEAEDLGVYYCFQGSHVPFTFGGGTKLEIK
For the molecule B3, the Neutralizing activity result in the test with liver cancer cells was “exhibited neutralizing activity”.

Values taken from US10533050B2, “Methods and compositions for liver cancer therapy” (Institut National de la Sante et de la Recherche Medicale …, priority 2010, dated 2020).
